Laboratory results published in US20230340065A1 (published 2023).

B1: TCR T116-49 (TCR, V domains shown)
Valpha: QQPVQSPQAVILREGEDAVINCSSSKALYSVHWYRQKHGEAPVFLMILLKGGEQKGHEKISASFNEKKQQSSLYLTASQLSYSGTYFCGTANSGGSNYKLTFGKGTLLTVNP
Vbeta: DAGITQSPRHKVTETGTPVTLRCHQTENHRYMYWYRQDPGHGLRLIHYSYGVKDTDKGEVSDGYSVSRSKTEDFLLTLESATSSQTSVYFCAISDYEGTEAFFGQGTRLTVV
B2: TCR T402-93 (TCR, V domains shown)
Valpha: GQQVMQIPQYQHVQEGEDFTTYCNSSTTLSNIQWYKQRPGGHPVFLIQLVKSGEVKKQKRLTFQFGEAKKNSSLHITATQTTDVGTYFCAGALPRAGSYQLTFGKGTKLSVIP
Vbeta: SQTIHQWPATLVQPVGSPLSLECTVEGTSNPNLYWYRQAAGRGLQLLFYSVGIGQISSEVPQNLSASRPQDRQFILSSKKLLLSDSGFYLCAWSLGAGYTDTQYFGPGTRLTVL

Assays:
[1] = biological target: T1, PRAME peptide on HLA-A*24:02 (human); assay: multimer staining
T1 peptide: LYVDSLFFL

[2] = biological target: T2, FBXO24 peptide on HLA-A*24:02 (human); assay: cytokine release
T2 peptide: DYVGTLFFL

[3] = biological target: T3, KCNK12 peptide on HLA-A*24:02 (human); assay: cytokine release
T3 peptide: DYVDSLYFC

[4] = biological target: T4, CATSPERB peptide on HLA-A*24:02 (human); assay: cytokine release
T4 peptide: LYYDHLGFL

[5] = biological target: T5, PRAME peptide on HLA-A*02:17 (human); assay: cytokine release
T5 peptide: LYVDSLFFL

[6] = biological target: T6, GTPBP6 peptide on HLA-A*24:02 (human); assay: cytokine release
T6 peptide: LYVDTIGFL

[7] = biological target: T7, XXYLT1 peptide on HLA-A*24:02 (human); assay: cytokine release
T7 peptide: YYSDSIFFL

Binder	binding result [1]	binding result [2]	binding result [3]	binding result [4]	binding result [5]	binding result [6]	binding result [7]
B1	recognises	recognises	no recognition	no recognition	recognises	no recognition	no recognition
B2	recognises	no recognition	recognises	recognises		recognises	recognises
